Data reported in US8030048B2, “Enantioselective epoxide hydlrolase and method for preparing and enantiopure epoxide using the same” (Korea Ocean Research and Development Institute, priority 2005, dated 2011).
Several values for one entry are separate records, joined by “and”; a condition that tells them apart may be missing. Equal values may be shown once.

B1: Erythrobacter litoralis HTCC2594 epoxide hydrolase rEEH3 (EEH3), SEQ ID NO: 17 (Erythrobacter litoralis HTCC2594) (protein)
chain: MPDPASGIAINRVPANGLEFEVAMAGEGDHLALMLHGFPELHFSWRHQMPLLAEMGYRVWAPNMRGYGETTRPTEVRDYALDHLTQDVAALIDASGATKVTLIAHDWGAIIAWYFAILKLRPLERLVIMNVPHPKVLQRELRRWEQIKKSWYVFFFQLPWLPEKRIGADSGKRIGELFAQTSCNPERFGPDVKAVYAAGAARPGAPRAMVNYYRAAMRHRDTIDPGDFRVDVPTLLVWGEEDVALNIRCTEGTEQWVPDITVKRLPNVSHWVQQDAPDEVNAILREWLPKPAPAS
notes: soluble-EH-like alpha/beta hydrolase
B2: Erythrobacter litoralis HTCC2594 epoxide hydrolase rEEH2 (EEH2), SEQ ID NO: 15 (Erythrobacter litoralis HTCC2594) (protein)
chain: MAGPSLGEWKAKAQHFAYDGLQIAFWTGGKPDARPLLLVHGYPTASWDWHRVWETLGSKYHLVAPDMIGFGLSDKPRSGYSIHRQADMHVALLDHLGIGAFDALVHDYGVSVGQELLARRAERSAAQGLGQTVFLNGGIFPDQHRPRPIQKLGTSPLGFLVGLLTNREKFGRSFSEVFGPDTQPGAQELDEFWDLVSHNGGNRIMHKLLHYIADRKEHAERWFDALRIAQGDIGLINGALDPVSGRHAYEAWRERLPDARHHLIPTVGHYPQVEDPQTVSRVTLDWLAR
notes: as for B1
B3: Novosphingobium aromaticivorans epoxide hydrolase nEEH (Novo), SEQ ID NO: 30 (Novosphingobium aromaticivorans DSM 12444) (protein)
chain: MNVAPFVVDIPRGEIEDLHRRIDMTRWPEKETVDDWSQGTPLGALQDFVSYWRGGYDWYACQRMLNDWGMFETEIDGVAIRFLHVRSAQADARPLLLTHGWPGSILEFRRCIAPLTRPEEHGGTAADAFHLVIPCLPGYGFSGKPTRKGWSVQKIAQAWGELMKRLGYESWLAQGGDWGSAVTTAIGALKVEGCAGIHLNMPIARPLPEDLAAPTPEELRALTALQHYQDWDSGYSKEQATRPQTVGYGLVDSPVGLAGWIYEKMWAWTDNEGAPEDALSRDDMLDNIMLYWLTAAGASSARLYWESFASFGPSQIDIPAAASAFPKEIIPAPRKWFERNCSKLVYWGELEKGGHFAAWEQPEAFVKELRAAFSLMC

Tests used:
[1] = substrate: c1ccc([C@@H]2CO2)cc1; experiment: Kinetic parameters of purified rEEH3 by GC analysis with (R)- or (S)-styrene oxide; format: biochemical, Erythrobacter litoralis HTCC2594; conditions: other: 100 mM potassium phosphate pH 8.0, 30° C.
Procedure: (§1) Kinetic parameters of the rEEH1, rEEH2, rEEH3, sEEH, nEEH, and rEEH were determined by a GC analysis using (R)- or (S)- styrene oxide substrate. 100 ul of purified EHases were mixed with various concentrations of (R)- or (S)- styrene oxide in a 10 ml tube containing 1 ml of potassium phosphate buffer (100 mM, pH 8.0), and shake-incubated at 200 rpm and a temperature of 30° C. The extraction mixtures were extracted with 2 ml of hexane, and enantiomeric excess [ee; ee=100×(S−R)/(S+R)] toward enantiopure styrene oxide was analyzed with a chiraldex gamma-cyclodextrin trifluoroacetyl(G-TA) capillary GC column. Wherein, the FIG. 8 was diagramed with GC analysis for the hydrolyzing activities of enantioselective EHases (rEEH1, rEEH2, and rEEH3) toward racemic styrene oxide.
(§2) Kinetic parameters were estimated by non-linear regression analysis using a Sigma Plot program, and various substrates as depicted in FIG. 1 were also tested for the enantioselective hydrolyzing activity by rEEH1, rEEH2, rEEH3, sEEH, nEEH, and rEEH.

[2] = substrate: c1ccc([C@H]2CO2)cc1; experiment: as above; format: biochemical, Erythrobacter litoralis HTCC2594; conditions: other: 100 mM potassium phosphate pH 8.0, 30° C.
Procedure: as §1, §2

[3] = Substrate selectivity of rEEH1, rEEH2 and rEEH3 toward various epoxide substrates; format: biochemical; conditions: purified enzyme
Procedure: Also, the substrate selectivity of rEEH1, rEEH2 and rEEH3 toward various epoxide substrates depicted in FIG. 1 was same to Table 4.
as §2

[4] = Kinetic parameters of purified EHases by GC analysis, (R)-styrene oxide; format: biochemical; conditions: (R)-enantiomer of styrene oxide, Table 5
Procedure: as §1, §2

[5] = Kinetic parameters of purified EHases by GC analysis, (S)-styrene oxide; format: biochemical; conditions: (S)-enantiomer of styrene oxide, Table 5
Procedure: as §1, §2

[6] = Enantioselective hydrolyzing activity of purified EHases toward ECH; format: biochemical; conditions: for Hydrolysis rate ECH (R): (R)-enantiomer; for Hydrolysis rate ECH (S): (S)-enantiomer
Procedure: as §1, §2

[7] = Enantioselective hydrolyzing activity of purified EHases toward SO; format: biochemical; conditions: for Hydrolysis rate SO (R): (R)-enantiomer; for Hydrolysis rate SO (S): (S)-enantiomer; for enantiomer preference in hydrolysis of styrene oxide, in words: purified enzyme
Procedure: as §1, §2

[8] = Enantioselective hydrolyzing activity of purified EHases toward EX; format: biochemical; conditions: for Hydrolysis rate EX (R): (R)-enantiomer; for Hydrolysis rate EX (S): (S)-enantiomer
Procedure: as §1, §2

[9] = Enantioselective hydrolyzing activity of purified EHases toward GPE; format: biochemical; conditions: for Hydrolysis rate GPE (R): (R)-enantiomer; for Hydrolysis rate GPE (S): (S)-enantiomer
Procedure: as §1, §2

[10] = Effects of pH and temperature on the EHase activity of rEEH1, rEEH2 and rEEH3; format: biochemical; conditions: for optimum temperature (maximum hydrolysis rate): 10 to 70° C. at pH 7.5; for optimum pH: activity toward styrene oxide, pH 4.0 to 10.0
Procedure: The effect of pH on the EHase activity was measured with 50 mM sodium acetate-acetic acid buffer (pH 4.0 and 6.0), 50 mM MES buffer (pH 6.0 to 7.0), 50 mM Phosphate buffer (pH 7.0 to 9.0), and 50 mM Glycine buffer (pH 9.0 and 10.0), and the optimum reaction temperature on the EHase activity was measured over a temperature of range from 10 to 70° C. at pH 7.5.

[11] = Enantioselective hydrolyzing activity of purified EHases toward EB; format: biochemical; conditions: for Hydrolysis rate EB (R): (R)-enantiomer; for Hydrolysis rate EB (S): (S)-enantiomer
Procedure: as §1, §2

[12] = substrate: c1ccc([C@@H]2CO2)cc1; experiment: Kinetic parameters of purified rEEH2 by GC analysis with (R)- or (S)-styrene oxide; format: biochemical, Erythrobacter litoralis HTCC2594; conditions: other: 100 mM potassium phosphate pH 8.0, 30° C.
Procedure: as §1, §2

[13] = substrate: c1ccc([C@H]2CO2)cc1; experiment: as above; format: biochemical, Erythrobacter litoralis HTCC2594; conditions: other: 100 mM potassium phosphate pH 8.0, 30° C.
Procedure: as §1, §2

[14] = substrate: c1ccc([C@@H]2CO2)cc1; experiment: Kinetic parameters of purified nEEH by GC analysis with (R)- or (S)-styrene oxide; format: biochemical, Novosphingobium aromaticivorans; conditions: other: 100 mM potassium phosphate pH 8.0, 30° C.
Procedure: as §1, §2

[15] = substrate: c1ccc([C@H]2CO2)cc1; experiment: as above; format: biochemical, Novosphingobium aromaticivorans; conditions: other: 100 mM potassium phosphate pH 8.0, 30° C.
Procedure: as §1, §2

[16] = Optimum activity conditions of sEEH, nEEH and rEEH; format: biochemical
Procedure: After cloning the genes into pET-24a (+) expression vector, the vector was introduced into BL21-CondonPlus(DE3)-RP (Novagen), and then separated by SDS-PAGE. […] Also, the optimum activities of sEEH, nEEH, and rEEH occurred at neutral pH and mesophilic conditions (30 to 40° C.).

Row | Molecule | kcat Km [4] [M⁻¹ s⁻¹] | kcat Km [5] [M⁻¹ s⁻¹] | Hydrolysis rate ECH (R) [6] | Hydrolysis rate ECH (S) [6] | Hydrolysis rate SO (R) [7] | Hydrolysis rate SO (S) [7] | enantiomer preference in hydrolysis of styrene oxide, in words [7] | Hydrolysis rate EX (R) [8] | Hydrolysis rate EX (S) [8] | Hydrolysis rate GPE (R) [9] | Hydrolysis rate GPE (S) [9] | optimum temperature (maximum hydrolysis rate) [10] [°C] | optimum pH [10] | Hydrolysis rate EB (R) [11] | Hydrolysis rate EB (S) [11] | other results
1 | B1 | 1600 | 1700 | 0.26 (×10^−2) mg/min | 0.28 (×10^−2) mg/min | 0.10 (×10^−2) mg/min | 0.14 (×10^−2) mg/min | (S)-styrene oxide was hydrolyzed faster than (R)-styrene oxide | 0.17 (×10^−2) mg/min | 0.09 (×10^−2) mg/min | 0.10 (×10^−2) mg/min | 0.10 (×10^−2) mg/min | 45 | 8.0 | 0.08 (×10^−2) mg/min | 0.11 (×10^−2) mg/min | Km [1]: 2.61 mM and 2.6 mM; Vmax [1]: 0.29 µmol/min and 0.2 µmol/min; kcat [1]: 4.3 s⁻¹; Km [2]: 3.71 mM and 3.7 mM; Vmax [2]: 0.43 µmol/min and 0.4 µmol/min; kcat [2]: 6.5 s⁻¹; substrate selectivity, in words [3]: hydrolyzed enantioselectively aliphatic epoxides at C-1 position and styrene oxide
2 | B2 | 300 | 200 | 0.23 (×10^−2) mg/min | 0.23 (×10^−2) mg/min | 0.05 (×10^−2) mg/min | 0.06 (×10^−2) mg/min | both of (S)-styrene oxide and (R)-styrene oxide were hydrolyzed at an equal rate | 0.07 (×10^−2) mg/min | 0.07 (×10^−2) mg/min | 0.06 (×10^−2) mg/min | 0.07 (×10^−2) mg/min | 55 | 7.5 | 0.08 (×10^−2) mg/min | 0.08 (×10^−2) mg/min | Km [12]: 5.49 mM and 5.4 mM; Vmax [12]: 0.11 µmol/min and 0.1 µmol/min; kcat [12]: 1.6 s⁻¹; Km [13]: 6.18 mM and 6.1 mM; Vmax [13]: 0.12 µmol/min and 0.1 µmol/min; kcat [13]: 1.7 s⁻¹
3 | B3 | – | – | – | – | – | – | not enantioselective | – | – | – | – | – | – | – | – | Km [14]: 6 ± 0.3 mM; Vmax [14]: 40 µmol/min/mg; kcat [14]: 27.8 s⁻¹; kcat/Km [14]: 4630 M⁻¹ s⁻¹; Km [15]: 4 ± 0.3 mM; Vmax [15]: 18.7 µmol/min/mg; kcat [15]: 13 s⁻¹; kcat/Km [15]: 3240 M⁻¹ s⁻¹; optimum pH [16]: neutral pH
